Measurements: article PMC11360484 (Toxins, 2024)

Biological target: T1, recombinant ecarin (rEcarin), SVMP PIII prothrombin activator from Echis pyramidum leakeyi (Echis pyramidum leakeyi (Kenya; entry …)
T1 construct: also called His10-tagged recombinant ecarin
Experiment: BLI; Octet HTX; […]; 30 C; PBS with 0.1% TWEEN 20 and 0.1% BSA; 180 s association, 180 s dissociation; 1:1 model, […]
Settings: both partners purified

T1 sequence (heavy, as listed by the source): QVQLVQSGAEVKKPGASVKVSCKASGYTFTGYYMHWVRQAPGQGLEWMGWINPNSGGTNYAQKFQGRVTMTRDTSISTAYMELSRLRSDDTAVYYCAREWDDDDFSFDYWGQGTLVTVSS

B1: H11 IgG1 (synthetic human antibody against rEcarin) (antibody, V domains shown)
VH: not shown
VL: QSALTQPASVSGSPGQSITISCTGTSSDVGGYNYVSWYQQHPGKAPKLMIYEVSNRPSGVSNRFSGSKSGNTASLTISGLQAEDEADYYCSSYTSSSTLVVFGGGTKLTVL
notes: copies: 2 + 2
Kd: 87 ± 8 nM
